Assay results published in patent US20230287088A1 (BIONTECH, published 2023).
Where two headings read alike, the source gives them in different places.

Assays:
[1] = target: T1, Mouse-Fc-tagged SARS-CoV2 S1-RBD (Sino Biologicals) recombinant protein (SARS-CoV-2, UniProt P0DTC2 319-541); test: competition ELISA: blocks S1-RBD-mFc binding to coated ACE-2 ECD
T1 construct: domain: S1-RBD

[2] = target: T2, Human-Fc-tagged SARS-CoV2 S1 recombinant protein (Sino Biologicals) (SARS-CoV-2, UniProt P0DTC2 16-685); test: ELISA on coated S1-hFc, 0.85 µg/ml; rabbit antibody in B-cell supernatant
T2 construct: domain: S1; Bought reagent

[3] = target: T2, Human-Fc-tagged SARS-CoV2 S1 …
[4] = target: T1, Mouse-Fc-tagged SARS-CoV2 S1-RBD (Sino …)
[5] = target: T1, Mouse-Fc-tagged SARS-CoV2 S1-RBD (Sino …); test: ELISA on coated S1-RBD-mFc
[6] = target: T3, His-tagged SARS-CoV S1-RBD (Sino Biologicals) (SARS-CoV, UniProt P59594 306-527); test: ELISA, His-tagged SARS-CoV S1-RBD coated, anti-human Fc detection
T3 construct: domain: S1-RBD; Bought reagent

[7] = target: T1, Mouse-Fc-tagged SARS-CoV2 S1-RBD (Sino …); test: SPR (Biacore T200), RBD-mFc captured via anti-mouse-Fc on CM5, 1:1 model
[8] = target: T1, Mouse-Fc-tagged SARS-CoV2 S1-RBD (Sino …); test: SPR, S1-RBD-mFc captured via anti-mouse-Fc antibody, 1:1 model
[9] = target: T2, Human-Fc-tagged SARS-CoV2 S1 …; test: ELISA on coated S1-hFc, 3 µg/ml; rabbit antibody in B-cell supernatant
[10] = target: T1, Mouse-Fc-tagged SARS-CoV2 S1-RBD (Sino …); test: ELISA on coated S1-RBD-mFc; remark: listed apart in the source
[11] = target: T3, His-tagged SARS-CoV S1-RBD (Sino …); test: ELISA on coated His-tagged SARS-CoV S1-RBD [D00020 Figure 8A continued]
[12] = target: T1, Mouse-Fc-tagged SARS-CoV2 S1-RBD (Sino …); test: competition ELISA: blocks S1-RBD-mFc binding to coated ACE-2 ECD; remark: listed apart in the source
[13] = target: T1, Mouse-Fc-tagged SARS-CoV2 S1-RBD (Sino …); remark: listed apart in the source

Row | Binder | IC50 [1] | EC50 [2] | IC50 [3] | Kd [4] | EC50 [5] | EC50 [6] | koff [7] | Kd [8] | kon [8] | EC50 [9] | koff [8] | EC50 [10] | binding result [11] | IC50 [12] | IC90 [12] | IC50 [13]
1 | P043.A.00095.D06 (protein sample ID 470) (antibody, V domains shown, also called S1 targeting antibody 470; anti-S1-antibody 470) VH: QEQLEESGGDLVKPEGSLTLTCTASGFSFSSNYWICWVRQAPGKGLEWIGCIYIGSGDTYYASWAKGRFTISKTSSTTVTLQMTSLTAADTATYFCARSYTPGSYYNMNLWGPGTLVTVSS VL: DVVMTQTPSSVSAAVGGTVTINCQASQQISNELSWYQQKSGQPPKLLIYDASDLASGVPSRFKGSGSGTEFTLTISDLESADAATYYCQSTGGASSDGNAFGGGTEVVVK | 19.6 ng/mL | 10.1 ng/mL | 12.7 ng/mL | 0.0104 nM | 8.6 ng/mL |  |  |  |  |  |  |  |  |  |  | 
2 | P043.A.00109.B12 (antibody, V domains shown, also called 468; protein sample ID 468) VH: QSLEESGGGLVKPEGSLTLTCKASGFDLNTYYYMCWVRQAPGKGLEWIACIATSDSGHTAYASWARGRFTISKTSSTTVTLQMTGLTAADTATYFCARGGRSVGDGVDLWGPGTLVTVSS VL: DIVMTQTPASVEAAVGGTVTIKCQASQSISSWLAWYQQKPGQPPKLLIYDASDLASGVPSRFKGSGSGTEFTLTISDLESADAATYYCQSYLYVESGSHGFGFGGGTEVVVR | 21.6 ng/mL | 18 ng/mL | 18.1 ng/mL |  | 5.6 ng/mL |  |  |  |  |  |  |  |  |  |  | 
3 | P043.A.00117.C08 (protein sample ID 469) (antibody, V domains shown) VH: QSLEESGGGLVKPEGSLTLTCKASGFDLNTYYYMCWVRQAPGKGLEWIACIGTSDSGHTAYASWARGRFTISKTSSTTVTLQMTGLTAADTATYFCARGGRSVGDGVDLWGPGTLVTVSS VL: DIVMTQTPASVEAAVGGTVTIKCQASQSISSWLAWYQQKPGQPPKLLIYDAFDLASGVPSRFKGSGSGTEFTLTISDLESADAATYYCQSYLYGESGSHGFGFGGGTEVVVR | 19.2 ng/mL | 15.1 ng/mL | 14.2 ng/mL |  | 6.2 ng/mL | 88.5 ng/mL |  |  |  |  |  |  |  |  |  | 
4 | P043.A.00047.H08 (protein sample ID 447) (antibody, V domains shown, also called antibody with the Protein sample ID 447) VH: QSLEESGGDLVKPGASLTLTCTASGFSFSSDGMCWVRQAPGKGLEWIACIAAGSSGSTYYATWAQGRFTISKSSSTTVTLQMTSLTAADTATYFCAGEDYTGNNYYALWGPGTLVTVSS VL: AIDMTQTPSPVSAVVGDTVTINCQASENIYSFLAWYQQKPGQPPKLLIYFASKLASGVPSRFKGSGSGTQFTLTISDVHSDDAAIYYCQQTGTYSDADNTFGGGTEVVVK | 29.9 ng/mL |  | 16.3 ng/mL |  | 9.6 ng/mL | 8.1 ng/mL | 6.72e-05 s⁻¹ | 0.228 nM | 296000 M⁻¹ s⁻¹ | 19.5 ng/mL |  |  |  |  |  | 
5 | P043.A.00018.C02 (protein sample ID 450) (antibody, V domains shown) VH: QSVEESGGRLVTPGTPLTLTCTVSGFSLSSYAMSWVRQAPGKGLEWIGIINSGRSTYYASWAKGRFTISKTSTTVDLKITSPTTEDTATYFCARDATSIGYYRYYGMDPWGPGTLVTVSS VL: AIQMTQSPSSLAASVGDTVTITCKASEDIGYGLNWYQQKLGIAPKLLIYGANTLESGVPSRFSGSGSETDYTLTISSVQAEDAGIYYCQQGYSTPLTFGAGTKVEIK | 43.3 ng/mL |  | 1 ng/mL |  | 8.2 ng/mL |  |  | 0.398 nM | 714000 M⁻¹ s⁻¹ | 1.7 ng/mL | 0.000283 s⁻¹ | 7.7 ng/mL | no binding (tested: 1000 ng/ml) | 28.6 ng/mL | 61200 ng/mL | 
6 | P043.A.00023.A08 (protein sample ID 446) (antibody, V domains shown) VH: QSVEESGGRLVTPGTPLTLTCTVSGFSLSKYAMSWVRQAPGKGLEWIGIISSGGSTYYASWAKGRFTISKTSSTTVDLKITSPTTEDTATYFCARAGYPGYSPHYFNIWGPGTLVTVSL VL: AIQMTQSPSSLAASVGDTVTITCKASEDIGYELNWYQQKLGIAPKLLIYGANTLESGVPSRFTGSGSETDYTLTISSVQAEDAGIYYCQQGYSTPPTFGAGTKVEIK | 37.3 ng/mL |  | 4.7 ng/mL |  | 8.1 ng/mL |  |  | 0.115 nM | 2.12e+06 M⁻¹ s⁻¹ | 8.5 ng/mL | 0.000243 s⁻¹ | 7 ng/mL | no binding (tested: 1000 ng/ml) | 28 ng/mL | 18000 ng/mL | 
7 | P043.A.00020.D06 (protein sample ID 444) (antibody, V domains shown) VH: QSVEESGGRLVTPGTPLTLTCTVSGFSLSSYAMNWVRQAPGKGLEWIGIISSSGSTYYASWAKGRFTISKTSTTVDLKITSPTTEDTATYFCARVGAGYAGYGYDNYYGMDPWGPGTLVTVSS VL: AIQMTQSPSSLAASVGDTVTITCKASEDIGYGLNWYQQKLGIAPKLLIYGANTLESGVPSRFSGSGSETDYTLTISSVQAEDAGIYYCQQGYSTPLTFGAGTKVEIK | 60.3 ng/mL |  | 7.2 ng/mL |  | 7.3 ng/mL |  |  | 1.36 nM | 236000 M⁻¹ s⁻¹ | 5.7 ng/mL | 0.00032 s⁻¹ | 8.2 ng/mL | no binding (tested: 1000 ng/ml) |  |  | 65.1 ng/mL
8 | P043.A.00097.B02 (antibody, V domains shown) VH: QELVESGGGLVQAGESLKLSCKASGIDFSSYGISWVRQAPGKGLEWIAYIYPGFGITNYANSVKGRFTISSDNAQNTVFLQMTSLTASDTATYFCTRAYASSSGYYIHYFNLWGPGTLVTVSS VL: AIQMTQSPSSLAASVGDTVTITCKASEDIGYGLNWYQQKLGIAPKLLIYGANTLESGVPSRFSGSGSETDYTLTISSVQAEDAGIYYCQQAYSTPLTFGAGTKVEIK | 41.7 ng/mL | 5.4 ng/mL | 5.5 ng/mL |  | 3.4 ng/mL |  |  |  |  |  |  |  |  |  |  | 
9 | P043.A.00092.C12 (antibody, V domains shown, also called 472; protein sample ID 472) VH: QEELKETGGGLVQPGGSLTLSCKASGFDFSSYYMSWVRQAPGKGLEWIGVIYASKGSTDYASWVNGRFTISSDNAQNTVDLQMNSLTAADTATYYCARSKRFYTYGYAGYAYAHYYYGMDLWGPGTLVTVSS VL: AIQMTQSPSSLAASVGDTVTITCKASEDIGYGLNWYQQKLGIAPKLLIYGADTLESGVPSRFSGSGSETDYTLTISSVQAEDAGIYYCQQGYSTPLTFGAGTKVEIK | 29.9 ng/mL | 6.8 ng/mL | 6.5 ng/mL |  | 8.3 ng/mL |  |  |  |  |  |  |  |  |  |  | 
10 | P043.A.00017.E04 (antibody, V domains shown) VH: QSVEESGGRLVTPGTPLTLTCTVSGFSLNNYAMNWVRQAPGKGLEWIGIISSSGNTYYANWAKGRFTISKTSTTVDLKITSPTTEDTATYFCARDSYPGYSPYYGMDPWGPGTLVTVSS VL: AIQMTQSPSSLAASVGDTVTITCKASEDIAYGLNWYQQKLGITPKLLIYGANTLESGVPSRFSGSGSETHYTLTISSVQAEDAGIYYCQQGYNTPPTFGAGTKVEIK | 32.1 ng/mL |  | 9.3 ng/mL |  | 8.2 ng/mL |  |  | 0.422 nM | 445000 M⁻¹ s⁻¹ | 19.6 ng/mL | 0.000327 s⁻¹ |  | no binding (tested: 1000 ng/ml) |  |  | 
11 | P043.A.00017.E07 (protein sample ID 449) (antibody, V domains shown) VH: QSVEESGGRLVTPGTPLTLTCTVSGFSLSSYAMSWVRQAPGKGLEWIGIISSSGSTYYASWAKGRFTISKTSTTVDLKITSPTTEDTATYFCARAMYPGYSTGVYNIWGPGTLVTVSL VL: AIQMTQSPSSLAASVGDTVTITCKASEDIGYELNWYQQKLGIAPKLLIYGANTLESGVPSRFSGSGSETDYTLTISSVQAEDAGIYYCQQGYNTPNTFGAGTKVEIK | 53.9 ng/mL |  | 3.6 ng/mL |  | 8.8 ng/mL |  |  | 0.308 nM | 780000 M⁻¹ s⁻¹ | 5.3 ng/mL | 0.000239 s⁻¹ | 6.5 ng/mL | no binding (tested: 1000 ng/ml) |  |  | 50.8 ng/mL
12 | P043.A.00024.C11 (protein sample ID 451) (antibody, V domains shown) VH: QSVEESGGRLVTPGTPLTLTCTVSGFSLSSYAMSWVRQAPGKGLEWIGIISSSGTTYYASWAKGPFTISKTSTTVDLKITSPTTEDTATYFCARGGAGYGYAHYYGMDPWGPGTLVTVSS VL: AIQMTQSPSSLAASVGDTVTITCKASEDIGYGLNWYQQKLGIAPKLLIYGANTLESGVPSRFSGSGSETDYTLTISSVQAEDAGIYYCQQGYSTPLTFGAGTKVEIK | 42.3 ng/mL |  | 3.6 ng/mL |  | 7 ng/mL |  |  | 0.77 nM | 398000 M⁻¹ s⁻¹ | 4.8 ng/mL | 0.000307 s⁻¹ | 6.4 ng/mL | no binding (tested: 1000 ng/ml) | 39.1 ng/mL | 99200 ng/mL | 
